Experimental findings from article PMC4730555 are described below.

The target of test [1] is ectodomain of RGMB (eRGMB), wild type (human) (UniProt Q6NW40). The test is described as follows: AUC.
For test [2] the target is unchanged. Nature of the test: multiangle light scattering.
A further test has as its target eRGMB-P206N (human) (UniProt Q6NW40). The test is described as follows: AUC.
For test [3], the target named is ectodomain of RGMB (eRGMB), wild type (human) (UniProt Q6NW40). The test is described as follows: AUC. The source holds these as a separate data set.
Test [4] has as its target RGMA, full-length ectodomain (human) (UniProt Q96B86). The test is described as follows: SPR. On the technique in general: In SPR one partner is held on a chip, and binding of the other changes the refractive index at the surface.
Test [5] deals with RGMC, full-length ectodomain (human) (UniProt Q6ZVN8). The test is described as follows: SPR.
The target in test [6] is ectodomain of RGMB (eRGMB), wild type (human) (UniProt Q6NW40). Nature of the test: SPR.

UniProt Q96B86, sequence (Q96B86 48-424): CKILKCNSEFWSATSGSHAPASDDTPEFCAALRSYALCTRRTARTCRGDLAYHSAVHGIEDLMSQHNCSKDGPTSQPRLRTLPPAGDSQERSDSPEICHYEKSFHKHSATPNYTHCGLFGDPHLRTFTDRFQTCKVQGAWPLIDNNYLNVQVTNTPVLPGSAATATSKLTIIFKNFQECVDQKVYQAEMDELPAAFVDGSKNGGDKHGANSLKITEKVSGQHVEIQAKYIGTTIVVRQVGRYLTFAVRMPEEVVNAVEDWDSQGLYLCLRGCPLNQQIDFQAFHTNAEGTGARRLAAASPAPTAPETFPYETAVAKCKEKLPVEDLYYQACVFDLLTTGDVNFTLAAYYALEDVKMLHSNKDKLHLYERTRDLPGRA
UniProt Q6ZVN8, sequence (Q6ZVN8 36-400): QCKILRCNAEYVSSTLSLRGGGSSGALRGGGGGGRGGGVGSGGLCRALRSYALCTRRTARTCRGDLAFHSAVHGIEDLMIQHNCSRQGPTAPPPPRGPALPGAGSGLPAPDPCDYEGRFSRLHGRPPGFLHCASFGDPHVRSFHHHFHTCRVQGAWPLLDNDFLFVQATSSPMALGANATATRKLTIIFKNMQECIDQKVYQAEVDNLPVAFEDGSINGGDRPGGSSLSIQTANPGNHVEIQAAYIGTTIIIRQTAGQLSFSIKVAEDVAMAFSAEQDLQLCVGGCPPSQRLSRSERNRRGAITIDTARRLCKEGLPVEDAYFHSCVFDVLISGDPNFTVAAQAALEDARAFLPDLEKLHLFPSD

For “NEO1_FN56M (from UniProt P97798 883-1136) (domain or fragment)”, the stoichiometry N (in test [1]; in test [2]; with eRGMB-P206N (human); in test [3]) was 1 throughout.
Turning to “full-length DCC ectodomain (from UniProt P43146 26-1097) (domain or fragment)”, the interaction relative to the equivalent NEO1 construct in test [4], in test [5] and in test [6] was 0.001 fold throughout.

A word on the stoichiometry N: it is a count of units in the complex or per binding partner.
